Read-outs that look alike come from different tables or passages of the source. Square brackets hold non-standard residues; d marks the D form. Ends that are not written are not given here. Met(O) = CS(=O)CC[C@H](N)C(=O)O; pS = N[C@@H](COP(=O)(O)O)C(=O)O
Key:
HSC70 [1] = molecular target: T1, HSC70 (bovine, UniProt P19120); experiment: SPR, 25C pH 7.4
HSC70 [2] = molecular target: T1, HSC70; experiment: SPR, 25C pH 7.4; remark: listed apart in the source

T1 sequence (P19120 2-650): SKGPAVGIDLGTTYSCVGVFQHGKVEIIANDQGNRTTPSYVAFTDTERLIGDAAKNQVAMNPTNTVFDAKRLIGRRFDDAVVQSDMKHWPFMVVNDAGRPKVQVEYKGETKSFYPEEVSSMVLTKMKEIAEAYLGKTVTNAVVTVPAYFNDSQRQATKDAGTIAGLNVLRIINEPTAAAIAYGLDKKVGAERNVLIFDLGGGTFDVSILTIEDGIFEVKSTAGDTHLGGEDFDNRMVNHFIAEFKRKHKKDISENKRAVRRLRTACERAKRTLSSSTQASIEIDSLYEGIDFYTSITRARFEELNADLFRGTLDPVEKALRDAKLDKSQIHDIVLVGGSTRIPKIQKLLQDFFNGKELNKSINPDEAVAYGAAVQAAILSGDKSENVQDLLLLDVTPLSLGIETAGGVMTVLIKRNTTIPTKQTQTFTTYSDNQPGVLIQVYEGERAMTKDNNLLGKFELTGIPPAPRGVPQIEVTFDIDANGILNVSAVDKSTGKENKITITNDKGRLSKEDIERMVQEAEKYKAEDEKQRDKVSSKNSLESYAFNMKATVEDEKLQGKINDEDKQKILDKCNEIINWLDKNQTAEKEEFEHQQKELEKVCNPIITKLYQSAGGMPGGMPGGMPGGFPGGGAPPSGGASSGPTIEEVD

Kd (HSC70 [1])	Kd (HSC70 [2])	Binder
1.91 µM	–	RIH[Met(O)]VYSKR[pS]GKPRGYAFIEY [P140(MO)]
–	6.94 µM	RIHMVYSKR[pS]GKPRGYAFIEY [P140]
